This passage reports stoichiometry N results from PMC6543031.

The target of this assay is N-tagged HA-SadB protein (Pseudomonas fluorescens F113). Put plainly: SEC; gel filtration of HA-SadB, in the presence or absence of c-di-GMP; data not shown.

Take “N-tagged HA-SadB protein (natural protein)”: the stoichiometry N worked out at 2.
